Key:
Assay in all cases: Kd (EC50 corrected by depletion factor)
P4HA1 = P4HA1 (UniProt P13674)
How it was run: (§1)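 To obtain EC50, data were fitted with a four-parameter log-logistic model; Kd was then EC50 multiplied by a protein-dependent depletion factor. Beforehand, free RNA oligos (0 nM to 30 μM) were pre-incubated with HEK293-FT lysate (2.5 mg protein/well) for 1 h at 4°C. The lysate then spent 30 min at 4°C with the same 5′-amino-C6 oligos coupled to NHS-Sepharose beads, and bound proteins were quantified by label-free LC-MS/MS, normalised to the control.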

PARP12 = biological target: T1, PARP12 (UniProt Q9H0J9)
T1 sequence: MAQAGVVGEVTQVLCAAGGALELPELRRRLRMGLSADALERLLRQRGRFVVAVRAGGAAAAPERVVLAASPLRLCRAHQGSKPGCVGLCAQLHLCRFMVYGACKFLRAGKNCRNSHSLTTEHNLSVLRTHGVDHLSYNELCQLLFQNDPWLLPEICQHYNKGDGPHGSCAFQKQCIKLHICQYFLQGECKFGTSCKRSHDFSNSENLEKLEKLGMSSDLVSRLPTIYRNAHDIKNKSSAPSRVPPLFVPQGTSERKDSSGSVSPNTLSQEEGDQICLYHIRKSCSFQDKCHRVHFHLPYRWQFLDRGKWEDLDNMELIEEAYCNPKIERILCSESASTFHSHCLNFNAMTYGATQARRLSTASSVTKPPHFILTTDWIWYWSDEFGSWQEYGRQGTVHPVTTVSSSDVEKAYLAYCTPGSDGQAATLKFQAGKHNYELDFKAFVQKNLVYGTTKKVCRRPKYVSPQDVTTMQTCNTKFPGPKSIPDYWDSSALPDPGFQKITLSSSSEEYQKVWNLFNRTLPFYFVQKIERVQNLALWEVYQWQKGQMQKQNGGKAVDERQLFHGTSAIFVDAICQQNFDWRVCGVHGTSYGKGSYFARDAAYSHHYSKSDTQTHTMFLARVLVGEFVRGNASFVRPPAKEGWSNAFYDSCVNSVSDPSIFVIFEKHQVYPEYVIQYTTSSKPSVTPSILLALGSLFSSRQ
How it was run: as §1

MRPL1 = MRPL1 (UniProt Q9BYD6)
How it was run: as §1

MRPL48 = MRPL48 (UniProt Q96GC5)
How it was run: as §1

MRPS18A = MRPS18A (UniProt Q9NVS2)
How it was run: as §1

MRPS2 = MRPS2 (UniProt Q9Y399)
How it was run: as §1

MRPS31 = MRPS31 (UniProt Q92665)
How it was run: as §1

PRPF4 = biological target: T2, PRPF4 (UniProt O43172)
T2 sequence: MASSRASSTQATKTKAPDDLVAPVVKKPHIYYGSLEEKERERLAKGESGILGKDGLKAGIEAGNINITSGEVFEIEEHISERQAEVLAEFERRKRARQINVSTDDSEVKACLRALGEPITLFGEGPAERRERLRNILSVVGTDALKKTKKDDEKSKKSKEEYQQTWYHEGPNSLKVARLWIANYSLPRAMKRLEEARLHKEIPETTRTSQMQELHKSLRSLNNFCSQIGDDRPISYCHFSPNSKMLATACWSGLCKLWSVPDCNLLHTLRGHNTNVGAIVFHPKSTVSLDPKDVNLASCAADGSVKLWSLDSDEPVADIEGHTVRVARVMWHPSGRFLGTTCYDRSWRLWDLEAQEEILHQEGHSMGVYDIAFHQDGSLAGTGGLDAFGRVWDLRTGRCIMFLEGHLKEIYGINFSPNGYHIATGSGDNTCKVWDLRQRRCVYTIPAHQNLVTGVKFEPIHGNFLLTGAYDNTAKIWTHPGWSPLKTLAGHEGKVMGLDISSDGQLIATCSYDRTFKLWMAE
How it was run: as §1

Chain of P4HA1 (P13674 whole entry): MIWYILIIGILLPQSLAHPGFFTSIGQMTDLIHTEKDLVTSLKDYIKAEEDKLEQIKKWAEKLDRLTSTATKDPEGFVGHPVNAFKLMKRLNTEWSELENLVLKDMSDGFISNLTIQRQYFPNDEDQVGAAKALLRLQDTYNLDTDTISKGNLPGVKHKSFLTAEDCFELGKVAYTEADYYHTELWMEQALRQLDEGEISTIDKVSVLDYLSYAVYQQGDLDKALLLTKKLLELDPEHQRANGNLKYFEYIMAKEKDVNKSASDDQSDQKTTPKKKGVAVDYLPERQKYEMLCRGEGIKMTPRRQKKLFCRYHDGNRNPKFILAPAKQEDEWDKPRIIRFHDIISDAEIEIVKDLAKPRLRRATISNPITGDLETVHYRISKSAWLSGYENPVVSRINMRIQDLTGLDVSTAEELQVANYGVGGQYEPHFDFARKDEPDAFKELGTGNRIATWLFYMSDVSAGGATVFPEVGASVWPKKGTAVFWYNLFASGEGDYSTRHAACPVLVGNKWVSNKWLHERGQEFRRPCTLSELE

Sequence: AAUAAA
- Kd (P4HA1): 23.8 nM
- Kd (PARP12): 5400 nM

Sequence: CUGUCCU
- Kd (MRPL1): 80.4 nM
- Kd (MRPL48): 96.1 nM
- Kd (MRPS18A): 23.9 nM

Sequence: UAUUUAU
- Kd (MRPS2): 27.7 nM
- Kd (MRPS31): 52.4 nM
- Kd (PRPF4): 2640 nM

— the supplement of paper PMC6379048
